Columns and labels:
mouse GLP1R [1] = target: T1, mouse GLP1R (Mus musculus, UniProt O35659); assay: High-fat diet induced obesity model (Example 3), wild-type C57BL/6 mice; type: in vivo; parameters: Ten 7-week-old male wild-type C57BL/6 mice (WT); endogenous in cells; host or cells: wild-type C57BL/6 mice (whole animal, in vivo)
T1 sequence (O35659 22-463): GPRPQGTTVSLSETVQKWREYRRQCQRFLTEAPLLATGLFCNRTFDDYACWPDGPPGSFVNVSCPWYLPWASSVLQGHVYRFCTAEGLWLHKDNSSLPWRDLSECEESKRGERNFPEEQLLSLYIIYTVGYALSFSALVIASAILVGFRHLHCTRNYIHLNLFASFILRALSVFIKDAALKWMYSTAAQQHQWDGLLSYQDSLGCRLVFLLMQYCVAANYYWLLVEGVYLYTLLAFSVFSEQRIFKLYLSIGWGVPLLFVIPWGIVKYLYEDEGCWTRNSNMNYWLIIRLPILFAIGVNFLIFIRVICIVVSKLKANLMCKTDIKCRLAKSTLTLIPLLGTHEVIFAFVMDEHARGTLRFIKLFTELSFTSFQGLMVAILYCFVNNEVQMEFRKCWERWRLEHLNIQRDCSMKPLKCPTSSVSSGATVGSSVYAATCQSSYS
Method: (§1) Twenty 7-week-old male wild-type C57BL/6 mice (WT) and twenty GLP1R humanized homozygous mice (I/H) were selected. All mice were given a high-fat diet for 12 weeks to induce obesity and high blood sugar.
(§2) On the 13th week, the mice were grouped and administered either Dulaglutide or PBS according to Table 5. The day of grouping was recorded as DO, the next day was recorded as D1, and so on for calculation. When a mouse lost more than 20% of its body weight, it was euthanized to end the experiment. The administration group was given 1 mg/kg Dulaglutide by subcutaneous injection (sc), and the control group was given the same dose of control PBS, once every two days, with a total of 5 administrations. The test protocol is as follows: the random blood glucose (RBG) concentration and body weight were measured before each administration; the mice were fasted after the second administration, and the glucose tolerance test ([…]) was carried out the next day (protocol: after the fasting blood glucose was tested, 2 g/kg D-glucose was injected intraperitoneally, and blood glucose was measured at 15 min, 30 min, 60 min and 120 min after injection; the glucose solution was prepared at the ratio of 20% mass fraction, the administration dose was 10 ul/g body weight, and the solvent was physiological saline). After the fourth administration, the mice were fasted, and the fasting blood glucose was measured on the second day; blood was collected from the canthus within 48 hours after the last administration, and the supernatant was obtained by centrifugation. The levels of serum glucagon and insulin were determined by ELISA.

human GLP1R [2] = target: T2, human GLP1R (Homo sapiens, UniProt P43220); assay: In vivo drug efficacy experiment (Example 2), GLP1R gene humanized homozygous mice; parameters: species or system mouse
T2 construct: 61-1452; 1-463; expressed in transfected cells; host or cells: GLP1R gene humanized homozygous mice (C57BL/6 ES cells); The human CDS is inserted into mouse exon 1 at the endogenous Glp1r locus, under mouse regulatory elements
Method: (§3) Ten 7-week-old male wild-type C57BL/6 mice (WT) and ten GLP1R gene humanized homozygous mice (H/H) were selected, and randomly divided (according to body weight) into control group (G1, G3) and administration Group (G2, G4). The control group was injected subcutaneously (s.c.) phosphate buffered saline (PBS). The administration group was injected subcutaneously with 10 mg/kg GLP1R agonist Dulaglutide, administered once every two days, with a total of 5 administrations. Before each administration, the body weight and non-fasting blood glucose concentration of the mice were measured. After the second and fourth doses, the mice were fasted overnight, and the glucose tolerance test (IPGTT) was used to evaluate the tolerance of the mice to glucose by intraperitoneal injection of 2 g/kg glucose D-Glucose. Blood was collected to determine the blood glucose value at 15 min, 30 min, 60 min, 120 min after injection, and the area under the curve (AUC) was calculated.

mouse GLP1R [3] = target: T1, mouse GLP1R; conditions: background statement, no test described; cited from earlier work
human GLP1R [4] = target: T2, human GLP1R; conditions: background statement, no test described; cited from earlier work
human GLP1R [5] = target: T2, human GLP1R; assay: High-fat diet induced obesity model (Example 3), GLP1R humanized homozygous mice; type: in vivo, mouse; conditions: G4 GLP1R humanized
Method: as §1, §2

mouse GLP1R [6] = target: T1, mouse GLP1R; assay: In vivo drug efficacy experiment (Example 2), wild-type C57BL/6 mice; parameters: Ten 7-week-old male wild-type C57BL/6 mice (WT); endogenous in cells; host or cells: wild-type C57BL/6 mice (whole animal, in vivo)
Method: as §3

T2 sequence (P43220 24-463): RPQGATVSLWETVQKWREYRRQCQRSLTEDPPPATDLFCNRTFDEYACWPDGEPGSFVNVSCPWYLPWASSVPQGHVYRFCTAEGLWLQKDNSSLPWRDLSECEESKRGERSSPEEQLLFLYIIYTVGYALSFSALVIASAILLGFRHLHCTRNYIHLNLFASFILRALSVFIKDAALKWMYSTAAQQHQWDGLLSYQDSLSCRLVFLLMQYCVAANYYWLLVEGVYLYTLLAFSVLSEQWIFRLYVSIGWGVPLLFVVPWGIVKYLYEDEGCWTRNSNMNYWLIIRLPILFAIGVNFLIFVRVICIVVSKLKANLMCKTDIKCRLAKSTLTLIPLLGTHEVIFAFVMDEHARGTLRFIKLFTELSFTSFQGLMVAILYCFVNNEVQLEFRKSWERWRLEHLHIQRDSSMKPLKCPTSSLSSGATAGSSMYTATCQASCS

Substance: Dulaglutide
- body weight (mouse GLP1R [1]; G2 C57BL/6, high-fat diet 12 weeks, 1 mg/kg s.c. Q2d*5, vs PBS control, FIG. 23): decreased more significantly
- blood glucose (non-fasting) (mouse GLP1R [1]; G2 C57BL/6, high-fat diet, 1 mg/kg s.c. Q2d*5, FIG. 25): significantly reduced
- food intake in the 24 hours after the first administration (mouse GLP1R [1]; G2 C57BL/6, high-fat diet, 1 mg/kg s.c., vs control group, FIG. 24B): significantly lower
- plasma levels of glucagon (mouse GLP1R [1]; G2 C57BL/6, high-fat diet, 24 hours after the drug administration, FIG. 28): decreased
- level of glucagon-like peptide-1 (mouse GLP1R [1]; G2 C57BL/6, high-fat diet, 24 hours after the drug administration, FIG. 29): significantly increased
- insulin level (mouse GLP1R [1]; G2 C57BL/6, high-fat diet, Day 10, 15 min time point, vs control group, FIG. 27): tendency to increase
- glucose tolerance (glucose tolerance test) (mouse GLP1R [1]; G2 C57BL/6, high-fat diet, after second administration, fasted, 2 g/kg D-glucose i.p., FIG. 26): significantly improve
- body weight during the experiment (human GLP1R [2]; G4, H/H mice, s.c. Q2d x 5, 10 mg/kg / 1 mg/kg (Table 5), FIG. 11): remained stable and did not change significantly
- fasting blood glucose (human GLP1R [2]; G4 H/H vs PBS control G3, fasted overnight, s.c. Q2d x 5, FIG. 13): reduced
- non-fasting blood glucose (human GLP1R [2]; G4 H/H vs PBS control G3, s.c. Q2d x 5, 10 mg/kg / 1 mg/kg (Table 5), FIG. 12): reduced
- area under the curve (AUC) of IPGTT (human GLP1R [2]; H/H mice, 2 g/kg D-Glucose i.p., blood glucose 15-120 min, P≤0.05, FIG. 15): significant downward trend
- affinity for mouse GLP1R (mouse GLP1R [3]): has affinity
- affinity for human GLP1R (human GLP1R [4]): has affinity
- body weight (human GLP1R [5]; high-fat diet 12 weeks, 1 mg/kg s.c. Q2d*5, vs PBS control, FIG. 23): decreased more significantly
- blood glucose (non-fasting) (human GLP1R [5]; high-fat diet, 1 mg/kg s.c. Q2d*5, FIG. 25): significantly reduced
- food intake in the 24 hours after the first administration (human GLP1R [5]; high-fat diet, 1 mg/kg s.c., vs control group, FIG. 24B): significantly lower
- plasma levels of glucagon (human GLP1R [5]; high-fat diet, 24 hours after the drug administration, FIG. 28): decreased, and the decrease was more obvious
- level of glucagon-like peptide-1 (human GLP1R [5]; high-fat diet, 24 hours after the drug administration, FIG. 29): significantly increased
- insulin level (human GLP1R [5]; high-fat diet, Day 10, 15 min time point, vs control group, FIG. 27): tendency to increase
- glucose tolerance (glucose tolerance test) (human GLP1R [5]; high-fat diet, after second administration, fasted, 2 g/kg D-glucose i.p., FIG. 26): significantly improve
- body weight during the experiment (mouse GLP1R [6]; G2, WT C57BL/6 mice, s.c. Q2d x 5, 10 mg/kg / 1 mg/kg (Table 5), FIG. 11): remained stable and did not change significantly
- fasting blood glucose (mouse GLP1R [6]; G2 WT vs PBS control G1, fasted overnight, s.c. Q2d x 5, FIG. 13): reduced
- non-fasting blood glucose (mouse GLP1R [6]; G2 WT vs PBS control G1, s.c. Q2d x 5, 10 mg/kg / 1 mg/kg (Table 5), FIG. 12): reduced
- area under the curve (AUC) of IPGTT (mouse GLP1R [6]; WT mice, 2 g/kg D-Glucose i.p., blood glucose 15-120 min, P≤0.05, FIG. 15): significant downward trend
